These results are taken from patent publication US20060265769A1 (BETH ISRAEL DEACONESS MEDICAL CENTER, published 2006).

To fix the notation:
T1: SHP-2 (UniProt P35235 2-593)
T1 sequence (looked up): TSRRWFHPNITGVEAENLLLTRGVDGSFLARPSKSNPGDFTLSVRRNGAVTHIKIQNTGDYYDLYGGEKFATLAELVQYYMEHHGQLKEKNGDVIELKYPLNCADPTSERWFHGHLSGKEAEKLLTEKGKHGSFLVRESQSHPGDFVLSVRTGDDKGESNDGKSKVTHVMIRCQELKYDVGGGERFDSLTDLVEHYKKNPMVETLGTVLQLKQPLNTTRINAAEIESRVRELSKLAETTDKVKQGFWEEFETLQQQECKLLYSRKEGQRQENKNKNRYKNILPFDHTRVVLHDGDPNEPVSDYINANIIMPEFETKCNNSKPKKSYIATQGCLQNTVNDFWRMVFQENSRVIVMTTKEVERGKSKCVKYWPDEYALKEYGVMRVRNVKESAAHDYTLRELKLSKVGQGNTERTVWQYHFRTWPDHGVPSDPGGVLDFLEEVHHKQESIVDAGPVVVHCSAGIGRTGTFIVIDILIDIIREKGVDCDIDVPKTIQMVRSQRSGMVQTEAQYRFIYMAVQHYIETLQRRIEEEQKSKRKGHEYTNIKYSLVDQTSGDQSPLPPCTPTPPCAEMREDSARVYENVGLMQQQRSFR

B1: Gab2HA (other, not shown: small tags and cut ends)
chain: MSGGGGDDVVCTGWLRKSPPEKKLRRYAWKKRWFILRSGRMSGDPDVLEYYKNEHSKKPLRIINLNLCEQVDAGLTFNKKELQDSFVFDIKTSERTFYLVAETEADMNKWVQSICQICGFNQAEESTDSLRNLSSASHGPRSSPAEFSSSQHLLRERKSSAPSHSSQPTLFTFEPPVSSHMQPTLSTSAPQEYLYLHQCISRRTENARSASFSQGTRQKSDTAVQKLAQSNGHCINGVGGQVHGFYSLPKPSRHNTEFKDSTYDLPRSLASHGHTKSSLTGSETDNEDVYTFKMPSNTLCRELGDLLVDNMDVPTTPLSAYQIPRTFTLDKNHNAMTVATPGDSAIAPPPRPPKPSQAETSQWGSIQQRPPISENSRSVAATIPRRNTLPAMDNSRLHRASSCETYEYPARGSGESASWSAEPPGKTAVGRSNSASSDDNYVPMNPGSSTLLAMERPGDNSQSVYIPMSPGPHHFDPLGYPSTALPIHRGPSRGSEIQPPPVNRNLKPDRKAKPTPLDLRNNTVIDELPFKSPVTKSWSRINSHTFNSSSSQYCRPISTQSITSTDSGDSEENYVPMQNPVSASPVPSGTNSPAPKKSTGSVDYLALDFQPGSPSPHRKPSTSSVTSDEKVDYVQVDKEKTQALQNTMQEWTDVRQSSEPSKGAKL
modifications: tyrosyl phosphorylated upon IL-3 stimulation
B2: Crk (other, UniProt Q64010 2-304, looked up)
chain: AGNFDSEERSSWYWGRLSRQEAVALLQGQRHGVFLVRDSSTSPGDYVLSVSENSRVSHYIINSSGPRPPVPPSPAQPPPGVSPSRLRIGDQEFDSLPALLEFYKIHYLDTTTLIEPVARSRQGSGVILRQEEAEYVRALFDFNGNDEEDLPFKKGDILRIRDKPEEQWWNAEDSEGKRGMIPVPYVEKYRPASASVSALIGGNQEGSHPQPLGGPEPGPYAQPSVNTPLPNLQNGPIYARVIQKRVPNAYDKTALALEVGELVKVTKINVSGQWEGECNGKRGHFPFTHVRLLDQQNPDEDFS
B3: Crk-II (other, UniProt Q64010-1 2-304, looked up)
chain: B2 chain
B4: Crk-L (other, UniProt P47941 1-303, looked up)
chain: MSSARFDSSDRSAWYMGPVTRQEAQTRLQGQRHGMFLVRDSSTCPGDYVLSVSENSRVSHYIINSLPNRRFKIGDQEFDHLPALLEFYKIHYLDTTTLIEPAPRYPSPPVGSVSAPNLPTAEENLEYVRTLYDFPGNDAEDLPFKKGELLVIIEKPEEQWWSARNKDGRVGMIPVPYVEKLVRSSPHGKHGNRNSNSYGIPEPAHAYAQPQTTTPLPTVASTPGAAINPLPSTQNGPVFAKAIQKRVPCAYDKTALALEVGDIVKVTRMNINGQWEGEVNGRKGLFPFTHVKIFDPQNPDDNE

One assay has as its target T1, SHP-2. Briefly: cell-based or functional assay.
A further assay addresses T2, Gab2 (mouse, UniProt Q9Z1S8 1-665, tyrosyl phosphorylated upon stimulation (Y604 and Y633 said to be highly phosphorylated)).
T2 construct: Scaffolding protein; Endogenous protein in lysates of BaF3, BAC1.2F5 and P210BCR-ABL BaF3 cells; also called p97; p97/Gab2
Briefly: co-immunoprecipitation and immunoblotting, BaF3 cells. Background: Immunoblotting shows a protein as a band on a membrane.

The target in the assay “Gab2HA” is B1. The description is as above.

Consider B1, for which, in the assay with SHP-2, the “basal c-fos luciferase activity in BaF3 cells” value was ~2 fold. As for B2, the binding result with Gab2 and in the assay with Gab2HA was “no binding” throughout. As to B3, the binding result with Gab2 and in the assay with Gab2HA was “no binding” each time.

Consider B4, for which the binding result with Gab2 and with Gab2HA was “no binding” each time.
